Test results: PMC5597622, “Engineered factor Xa variants retain procoagulant activity independent of direct factor Xa inhibitors” (Nature Communications, 2017)
Where two headings read alike, the source gives them in different places. Non-standard residues stand in square brackets, D forms with d. Residues, ends and D or L forms follow the SMILES beside them. *: point of attachment. dChg = N[C@@H](C(=O)O)C1CCCCC1; pNA = O=[N+]([O-])c1ccc(N*)cc1; Cbz = O=C(OCc1ccccc1)*; Moc = COC(=O)*

What was measured:
[1] = target: chimeric factor Xa variant B (human FXa with His91-Tyr99 replaced by the homologous region of Tropid (human | Tropidechus carinatus))
[2] = target: recombinant wild-type human factor Xa (human)
[3] = target: plasma-derived human factor Xa (human)
[4] = target: chimeric factor Xa variant C (human FXa with His91-Tyr99 replaced by the homologous region of P. textilis isoform FX) (human | Pseudonaja textilis)
FXa-B [5] = system: T1, FXa-B; assay type: biochemical; conditions: n = 2; read-out: S2765^a K m
T1 construct: His91-Tyr99 replaced with homologous region of T. carinatus venom FX

wt-FXa (WT) [6] = target: T2, wt-FXa (WT) (Homo sapiens, UniProt P00742); assay type: biochemical; conditions: read-out: S2765^b K m; n = 2
T2 construct: gene F10; free or prothrombinase-assembled with FV-810 and PCPS, see series

pd-FXa (h-FXa) [7] = target: T3, pd-FXa (h-FXa) (Homo sapiens, UniProt P00742); assay type: biochemical; conditions: read-out: S2765^a K m; n = 2
T3 construct: gene F10; plasma-derived human FXa (Haematologic Technologies); free or prothrombinase-assembled with FV-810 and PCPS, see series

FXa-C [8] = system: T4, FXa-C; assay type: biochemical; conditions: n = 2; read-out: S2765^a K m
T4 construct: His91-Tyr99 replaced with homologous region of P. textilis isoform FX

wt-FXa (WT) [9] = target: T2, wt-FXa (WT); assay type: biochemical; conditions: read-out: S2765^a K m; n = 2
pd-FXa (h-FXa) [10] = target: T3, pd-FXa (h-FXa); assay type: biochemical; conditions: read-out: S2765^b K m; n = 2
FXa-A [11] = system: T5, FXa-A; assay type: biochemical; conditions: n = 2; read-out: S2765^a K m
T5 construct: His91-Tyr99 replaced with homologous region of P. textilis venom FX

FXa-A [12] = system: T5, FXa-A; assay type: biochemical; conditions: n = 2; read-out: S2765^b K m
FXa-C [13] = system: T4, FXa-C; assay type: biochemical; conditions: n = 2; read-out: S2765^b K m
FXa-B [14] = system: T1, FXa-B; assay type: biochemical; conditions: n = 2; read-out: S2765^b K m
[15] = target: constitutively active partial B-domainless recombinant form of human FV (FV-810) (human) (UniProt P12259); assay: kinetic assay of prothrombinase assembly (rate of prothrombin activation); apparent; steady-state initial velocities of prothrombin activation at 25 °C in assay buffer (20 mM Hepes, 0.15 M NaCl, pH 7.5, 5 mM CaCl2, 0.1% PEG8000) with PCPS (50 µM); how the cofactor was varied is not told
[16] = target: RVV-X activated P. textilis isoform FX (Pseudonaja textilis, UniProt Q1L658); assay: biochemical
[17] = target: RVV-X activated P. textilis venom FX (Pseudonaja textilis, UniProt Q56VR3); assay: biochemical
[18] = target: RVV-X activated P. textilis liver FX (Pseudonaja textilis, UniProt Q1L659); assay: biochemical
[19] = target: purified recombinant P. textilis venom FXa (v-FXa) (Pseudonaja textilis, UniProt Q56VR3); assay: biochemical
FXa-C [20] = system: T4, FXa-C; assay type: biochemical; conditions: read-out: SpecXa Michaelis–Menten constant (K m)
FXa-B [21] = system: T1, FXa-B; assay type: biochemical; conditions: read-out: SpecXa Michaelis–Menten constant (K m)
FXa-A [22] = system: T5, FXa-A; assay type: biochemical; conditions: read-out: SpecXa Michaelis–Menten constant (K m)
wt-FXa (WT) [23] = target: T2, wt-FXa (WT); assay type: biochemical; conditions: read-out: SpecXa Michaelis–Menten constant (K m)
pd-FXa (h-FXa) [24] = target: T3, pd-FXa (h-FXa); assay type: biochemical; conditions: read-out: SpecXa Michaelis–Menten constant (K m)
[25] = target: chimeric factor Xa variant B (human FXa with His91-Tyr99 replaced by the homologous region of Tropid (human | Tropidechus carinatus)); assay: inhibition of enzyme amidolytic activity (Morrison tight-binding fit)
[26] = target: recombinant wild-type human factor Xa (human); assay: as above
[27] = target: chimeric factor Xa variant C (human FXa with His91-Tyr99 replaced by the homologous region of P. textilis isoform FX) (human | Pseudonaja textilis); assay: as above
[28] = target: plasma-derived human factor Xa (human); assay: as above
FXa-B [29] = assay: Inhibition of FXa by TFPI and rTAP (residual amidolytic activity); assay type: biochemical, human-snake chimera; conditions: in the chimeric FXa variants
FXa-B [30] = target: FXa-B (Homo sapiens, UniProt P00742); assay: as above; assay type: biochemical, human-snake chimera; conditions: rTAP 0.5–100 nM, 1 nM FXa, 30 min
FXa-C [31] = target: T6, FXa-C (Homo sapiens, UniProt P00742, E317A/INS311KKFVPPQKA/K316L/N312Y/R313K/T315D/T318A); assay type: biochemical, human-snake chimera; conditions: rTAP 0.5–100 nM, 1 nM FXa, 30 min
T6 construct: made in house

wt-FXa = target: T7, wt-FXa (Homo sapiens, UniProt P00742); assay: Inhibition of FXa by TFPI and rTAP (residual amidolytic activity); assay type: biochemical
T7 construct: made in house; host or cells: HEK293 (co-transfected with furin)

FXa-A [32] = target: FXa-A (Homo sapiens, UniProt P00742); assay type: biochemical, human-snake chimera; conditions: rTAP 0.5–100 nM, 1 nM FXa, 30 min
pd-FXa = target: T8, pd-FXa (Homo sapiens, UniProt P00742); assay type: biochemical
T8 construct: the heavy chain derived from α or β FXa (α/β), the FXa light chain (LC); purchased Haematologic Technologies (Essex Junction, VT, USA); host or cells: human plasma

antithrombin (from UniProt P01008 33-464) (natural protein)
k 2, UFH: second-order rate constant of FXa inhibition by antithrombin with unfractionated heparin [1]: 1.02e+06 M⁻¹ s⁻¹
k 2, uncatalyzed: second-order rate constant of FXa inhibition by antithrombin [1]: 410 M⁻¹ s⁻¹
k 2, UFH: second-order rate constant of FXa inhibition by antithrombin with unfractionated heparin [2]: 3.09e+06 M⁻¹ s⁻¹
k 2, uncatalyzed: second-order rate constant of FXa inhibition by antithrombin [2]: 4070 M⁻¹ s⁻¹
k 2, UFH: second-order rate constant of FXa inhibition by antithrombin with unfractionated heparin [3]: 3.59e+06 M⁻¹ s⁻¹
k 2, uncatalyzed: second-order rate constant of FXa inhibition by antithrombin [3]: 1550 M⁻¹ s⁻¹
k 2, UFH: second-order rate constant of FXa inhibition by antithrombin with unfractionated heparin [4]: 6.73e+06 M⁻¹ s⁻¹
k 2, uncatalyzed: second-order rate constant of FXa inhibition by antithrombin [4]: 950 M⁻¹ s⁻¹

N=C(N)NCCC[C@H](NC(=O)CNC(=O)[C@@H](CCCNC(=N)N)NC(=O)OCc1ccccc1)C(=O)Nc1ccc([N+](=O)[O-])cc1 [S2765, N-α-benzyloxycarbonyl-D-Arg-Gly-Arg-pNA] (Cbz-[dR]-Gly-Arg-pNA)
Km (FXa-B [5]): 49 ± 8 µM
Km (wt-FXa (WT) [6]): 26 ± 8 µM
Km (pd-FXa (h-FXa) [7]): 59 ± 19 µM
Km (FXa-C [8]): 60 ± 11 µM
Km (wt-FXa (WT) [9]): 33 ± 7 µM
Km (pd-FXa (h-FXa) [10]): 29 ± 8 µM
Km (FXa-A [11]): 39 ± 7 µM
Km (FXa-A [12]): 243 ± 50 µM
Km (FXa-C [13]): 216 ± 28 µM
Km (FXa-B [14]): 249 ± 29 µM

recombinant wild-type human factor Xa (enzyme)
Kd [15]: 1.44 nM

COc1ccc(-n2nc(C(N)=O)c3c2C(=O)N(c2ccc(N4CCCCC4=O)cc2)CC3)cc1 [Apixaban, 1-(4-methoxyphenyl)-7-oxo-6-(4-(2-oxopiperidin-1-yl)phenyl)-4,5,6,7-tetrahydro-1H -pyrazolo[3,4-c]pyridine-3-carboxamide]
IC50 [16]: ≥ 100 µM
IC50 [17]: ≥ 100 µM
IC50 [18]: 12 nM
IC50 [19]: ≥ 100 µM

chimeric factor Xa variant C (human FXa with His91-Tyr99 replaced by the homologous region of P. textilis isoform FX) (enzyme)
Kd [15]: 0.57 nM

O=C(NC[C@H]1CN(c2ccc(N3CCOCC3=O)cc2)C(=O)O1)c1ccc(Cl)s1 [Rivaroxaban, 5-chloro-N-({(5S)-2-oxo-3-[4-(3-oxomorpholin-4-yl)phenyl]-1,3-oxazolidin-5-yl}methyl)thiophene-2-carboxamide]
IC50 [19]: ≥ 30 µM

chimeric factor Xa variant B (human FXa with His91-Tyr99 replaced by the homologous region of Tropid (enzyme)
Kd [15]: 0.85 nM

COC(=O)N[C@@H](C(=O)NCC(=O)N[C@@H](CCCNC(=N)N)C(=O)Nc1ccc([N+](=O)[O-])cc1)C1CCCCC1 [SpecXa, methoxycarbonylcyclohexylglycylglycyl-Arg-pNA] (Moc-[dChg]-Gly-Arg-pNA)
Km (FXa-C [20]): 659 µM
Km (FXa-B [21]): 658 µM
Km (FXa-A [22]): 645 µM
Km (wt-FXa (WT) [23]): 135 µM
Km (pd-FXa (h-FXa) [24]): 138 µM

plasma-derived human factor Xa (enzyme)
Kd [15]: 0.41 nM

tissue factor pathway inhibitor alpha (from UniProt P10646-1 29-304) (natural protein)
Ki [25]: 4.41 nM
Ki [26]: 1.62 nM
Ki [27]: 6.46 nM

recombinant tick saliva anticoagulant protein (from UniProt P17726 1-60) (natural protein)
Ki [25]: 7.92 nM
Ki [26]: 0.7 nM
Ki [28]: 0.87 nM
Ki [27]: 20.2 nM

rTAP (YNRLCIKPRDWIDECDSNEGGERAYFRNGKGGCDSFWICPEDHTGADYYSSYRDCFNACI)
fold reduced binding (FXa-B [29]): at least 11 fold
Ki (FXa-B [30]): 7.92 ± 1.88 nM
Ki (FXa-C [31]): 20.2 ± 6.56 nM
Ki (wt-FXa): 0.7 ± 0.04 nM
Ki (FXa-A [32]): 26.3 ± 8.45 nM
Ki (pd-FXa): 0.87 ± 0.18 nM
